The data set concerns off-target genomic sites. Briefly: Off-target oligo insertion based assay in HEK293_Cas9 cells, dgRNAs and sgRNAs (Tables 23, 24). In kind it is cell-based, human. The settings on record: for # Sites (off-target integration sites detected): Table 24, TTR sgRNAs in HekCas9 cells, insertion detection method; for # Sites in HekCas9 cells (Example 5): Table 30, TTR sgRNAs, repeated from Example 5 for comparison. How it is done:
An oligo insertion based assay (See, e.g., Tsai et al., Nature Biotechnology 33, 187-197; 2015) was used to determine potential off-target genomic sites cleaved by Cas9 targeting TTR. Forty-five dgRNAs from Table 1 (and two control guides with known off-target profiles) were screened in the HEK293 Cas9 cells. The human embryonic kidney adenocarcinoma cell line HEK293 constitutively expressing Spy Cas9 (“HEK293_Cas9”) was cultured in DMEM media supplemented with 10% fetal bovine serum and 500 μg/ml G418. Cells were plated at a density of 30,000 cells/well in a 96-well plate 24 hours prior to transfection. Cells were transfected with Lipofectamine RNAiMAX (ThermoFisher, Cat. 13778150) per the manufacturer's protocol. Cells were transfected with a lipoplex containing individual crRNA (15 nM), trRNA (15 nM), and donor oligo with (10 nM) Lipofectamine RNAiMAX (0.3 μL/well) and OptiMem. Cells were lysed 24 hours post transfection and genomic DNA was extracting using Zymo's Quick gDNA 96 Extraction kit (catalog #D3012) following the manufacturer's recommended protocol. The gDNA was quantified using the Qubit High Sensitivity dsDNA kit (Life Technologies). Libraries were prepared per the previously described method in Tsai et al, 2015 with minor modifications. Sequencing was performed on Illumina's MiSeq and HiSeq 2500. The assay identified potential off-target sites for some of the crRNAs which are plotted in FIG. 2.
Additionally, a subset of the guides was assessed for off-target potential as modified sgRNAs in the Hek_Cas9 cells via the oligo based insertion method described above. The off-target results were plotted in FIG. 4.

Strand notation (5' to 3'): a small letter for the sugar, then the base; units joined by * are phosphorothioate-linked, units joined directly phosphodiester-linked; [ ] holds rarer units or linkages, { } end groups; capitals alone tell only the bases. m = 2'-O-methyl; r = 2'-OH (RNA)

B1: G000494: TTR sgRNA modified sequence, Human, SEQ ID No. 101; guide sequence of CR003360 (nucleic acid)
guide: mG*mU*mG*rArGrUrCrUrGrGrArGrArGrCrUrGrCrArUrGrUrUrUrUrArGrAmGmCmUmAmGmAmAmAmUmAmGmCrArArGrUrUrArArArArUrArArGrGrCrUrArGrUrCrCrGrUrUrArUrCrAmAmCmUmUmGmAmAmAmAmAmGmUmGmGmCmAmCmCmGmAmGmUmCmGmGmUmGmCmU*mU*mU*mU
Take B1: the “# Sites (off-target integration sites detected)” value came to 4 and the “# Sites in HekCas9 cells (Example 5)” value is 4.

B2: G000493: TTR sgRNA modified sequence, Human, SEQ ID No. 100; guide sequence of CR003368 (nucleic acid)
guide: mA*mA*mG*rUrGrCrCrUrUrCrCrArGrUrArArGrArUrUrGrUrUrUrUrArGrAmGmCmUmAmGmAmAmAmUmAmGmCrArArGrUrUrArArArArUrArArGrGrCrUrArGrUrCrCrGrUrUrArUrCrAmAmCmUmUmGmAmAmAmAmAmGmUmGmGmCmAmCmCmGmAmGmUmCmGmGmUmGmCmU*mU*mU*mU
In the case of B2, the “# Sites (off-target integration sites detected)” value is reported as 7 and the “# Sites in HekCas9 cells (Example 5)” value was found to be 7.

B3: G000481: TTR sgRNA modified sequence, Human, SEQ ID No. 88; guide sequence of CR003345 (nucleic acid)
guide: mU*mC*mU*rArGrArArCrUrUrUrGrArCrCrArUrCrArGrGrUrUrUrUrArGrAmGmCmUmAmGmAmAmAmUmAmGmCrArArGrUrUrArArArArUrArArGrGrCrUrArGrUrCrCrGrUrUrArUrCrAmAmCmUmUmGmAmAmAmAmAmGmUmGmGmCmAmCmCmGmAmGmUmCmGmGmUmGmCmU*mU*mU*mU
For the molecule B3, the “# Sites (off-target integration sites detected)” value is listed as 3 and the “# Sites in HekCas9 cells (Example 5)” value was determined as 3.

B4: G000485: TTR sgRNA modified sequence, Human, SEQ ID No. 92; guide sequence of CR003336 (nucleic acid)
guide: mC*mC*mU*rCrCrUrCrUrGrCrCrUrUrGrCrUrGrGrArCrGrUrUrUrUrArGrAmGmCmUmAmGmAmAmAmUmAmGmCrArArGrUrUrArArArArUrArArGrGrCrUrArGrUrCrCrGrUrUrArUrCrAmAmCmUmUmGmAmAmAmAmAmGmUmGmGmCmAmCmCmGmAmGmUmCmGmGmUmGmCmU*mU*mU*mU
In the case of B4, the “# Sites (off-target integration sites detected)” value is given as 22 and the “# Sites in HekCas9 cells (Example 5)” value is 22.

B5: G000488: TTR sgRNA modified sequence, Human, SEQ ID No. 95; guide sequence of CR003346 (nucleic acid)
guide: mA*mA*mA*rGrUrUrCrUrArGrArUrGrCrUrGrUrCrCrGrGrUrUrUrUrArGrAmGmCmUmAmGmAmAmAmUmAmGmCrArArGrUrUrArArArArUrArArGrGrCrUrArGrUrCrCrGrUrUrArUrCrAmAmCmUmUmGmAmAmAmAmAmGmUmGmGmCmAmCmCmGmAmGmUmCmGmGmUmGmCmU*mU*mU*mU
Take B5: the “# Sites (off-target integration sites detected)” value was 0 and the “# Sites in HekCas9 cells (Example 5)” value worked out at 0.

B6: G000495: TTR sgRNA modified sequence, Human, SEQ ID No. 102; guide sequence of CR003343 (nucleic acid)
guide: mC*mA*mG*rArGrGrArCrArCrUrUrGrGrArUrUrCrArCrGrUrUrUrUrArGrAmGmCmUmAmGmAmAmAmUmAmGmCrArArGrUrUrArArArArUrArArGrGrCrUrArGrUrCrCrGrUrUrArUrCrAmAmCmUmUmGmAmAmAmAmAmGmUmGmGmCmAmCmCmGmAmGmUmCmGmGmUmGmCmU*mU*mU*mU
For the molecule B6, the “# Sites (off-target integration sites detected)” value stood at 13 and the “# Sites in HekCas9 cells (Example 5)” value is 13.

B7: G000490: TTR sgRNA modified sequence, Human, SEQ ID No. 97; guide sequence of CR003366 (nucleic acid)
guide: mA*mA*mA*rUrArGrArCrArCrCrArArArUrCrUrUrArCrGrUrUrUrUrArGrAmGmCmUmAmGmAmAmAmUmAmGmCrArArGrUrUrArArArArUrArArGrGrCrUrArGrUrCrCrGrUrUrArUrCrAmAmCmUmUmGmAmAmAmAmAmGmUmGmGmCmAmCmCmGmAmGmUmCmGmGmUmGmCmU*mU*mU*mU
Take B7: the “# Sites (off-target integration sites detected)” value was determined as 12 and the “# Sites in HekCas9 cells (Example 5)” value came out at 12.

B8: G000487: TTR sgRNA modified sequence, Human, SEQ ID No. 94; guide sequence of CR003357 (nucleic acid)
guide: mU*mU*mC*rUrUrUrGrGrCrArArCrUrUrArCrCrCrArGrGrUrUrUrUrArGrAmGmCmUmAmGmAmAmAmUmAmGmCrArArGrUrUrArArArArUrArArGrGrCrUrArGrUrCrCrGrUrUrArUrCrAmAmCmUmUmGmAmAmAmAmAmGmUmGmGmCmAmCmCmGmAmGmUmCmGmGmUmGmCmU*mU*mU*mU
As for B8, the “# Sites (off-target integration sites detected)” value was 14 and the “# Sites in HekCas9 cells (Example 5)” value is reported as 14.

B9: G000484: TTR sgRNA modified sequence, Human, SEQ ID No. 91; guide sequence of CR003367 (nucleic acid)
guide: mA*mG*mA*rCrArCrCrArArArUrCrUrUrArCrUrGrGrArGrUrUrUrUrArGrAmGmCmUmAmGmAmAmAmUmAmGmCrArArGrUrUrArArArArUrArArGrGrCrUrArGrUrCrCrGrUrUrArUrCrAmAmCmUmUmGmAmAmAmAmAmGmUmGmGmCmAmCmCmGmAmGmUmCmGmGmUmGmCmU*mU*mU*mU
In the case of B9, the “# Sites (off-target integration sites detected)” value is listed as 7 and the “# Sites in HekCas9 cells (Example 5)” value was determined as 7.

B10: G000492: TTR sgRNA modified sequence, Human, SEQ ID No. 99; guide sequence of CR003342 (nucleic acid)
guide: mC*mU*mU*rCrUrCrUrArCrArCrCrCrArGrGrGrCrArCrGrUrUrUrUrArGrAmGmCmUmAmGmAmAmAmUmAmGmCrArArGrUrUrArArArArUrArArGrGrCrUrArGrUrCrCrGrUrUrArUrCrAmAmCmUmUmGmAmAmAmAmAmGmUmGmGmCmAmCmCmGmAmGmUmCmGmGmUmGmCmU*mU*mU*mU
Regarding B10, the “# Sites (off-target integration sites detected)” value amounted to 97 and the “# Sites in HekCas9 cells (Example 5)” value stood at 97.

B11: G000482: TTR sgRNA modified sequence, Human, SEQ ID No. 89; guide sequence of CR003365 (nucleic acid)
guide: mU*mG*mU*rArGrArArGrGrGrArUrArUrArCrArArArGrGrUrUrUrUrArGrAmGmCmUmAmGmAmAmAmUmAmGmCrArArGrUrUrArArArArUrArArGrGrCrUrArGrUrCrCrGrUrUrArUrCrAmAmCmUmUmGmAmAmAmAmAmGmUmGmGmCmAmCmCmGmAmGmUmCmGmGmUmGmCmU*mU*mU*mU
In the case of B11, the “# Sites (off-target integration sites detected)” value is given as 13 and the “# Sites in HekCas9 cells (Example 5)” value is recorded as 13.

B12: G000491: TTR sgRNA modified sequence, Human, SEQ ID No. 98; guide sequence of CR003338 (nucleic acid)
guide: mA*mU*mA*rCrCrArGrUrCrCrArGrCrArArGrGrCrArGrGrUrUrUrUrArGrAmGmCmUmAmGmAmAmAmUmAmGmCrArArGrUrUrArArArArUrArArGrGrCrUrArGrUrCrCrGrUrUrArUrCrAmAmCmUmUmGmAmAmAmAmAmGmUmGmGmCmAmCmCmGmAmGmUmCmGmGmUmGmCmU*mU*mU*mU
Regarding B12, the “# Sites (off-target integration sites detected)” value was 28 and the “# Sites in HekCas9 cells (Example 5)” value was determined as 28.

B13: G000483: TTR sgRNA modified sequence, Human, SEQ ID No. 90; guide sequence of CR005298 (nucleic acid)
guide: mU*mC*mC*rArCrUrCrArUrUrCrUrUrGrGrCrArGrGrArGrUrUrUrUrArGrAmGmCmUmAmGmAmAmAmUmAmGmCrArArGrUrUrArArArArUrArArGrGrCrUrArGrUrCrCrGrUrUrArUrCrAmAmCmUmUmGmAmAmAmAmAmGmUmGmGmCmAmCmCmGmAmGmUmCmGmGmUmGmCmU*mU*mU*mU
Turning to B13, the “# Sites (off-target integration sites detected)” value worked out at 5 and the “# Sites in HekCas9 cells (Example 5)” value worked out at 5.

B14: G000499: TTR sgRNA modified sequence, Human, SEQ ID No. 106; guide sequence of CR005303 (nucleic acid)
guide: mU*mG*mA*rArUrCrCrArArGrUrGrUrCrCrUrCrUrGrArGrUrUrUrUrArGrAmGmCmUmAmGmAmAmAmUmAmGmCrArArGrUrUrArArArArUrArArGrGrCrUrArGrUrCrCrGrUrUrArUrCrAmAmCmUmUmGmAmAmAmAmAmGmUmGmGmCmAmCmCmGmAmGmUmCmGmGmUmGmCmU*mU*mU*mU
B14: the “# Sites (off-target integration sites detected)” value is recorded as 4 and the “# Sites in HekCas9 cells (Example 5)” value is given as 4.

B15: G000486: TTR sgRNA modified sequence, Human, SEQ ID No. 93; guide sequence of CR003339 (nucleic acid)
guide: mA*mC*mA*rCrArArArUrArCrCrArGrUrCrCrArGrCrArGrUrUrUrUrArGrAmGmCmUmAmGmAmAmAmUmAmGmCrArArGrUrUrArArArArUrArArGrGrCrUrArGrUrCrCrGrUrUrArUrCrAmAmCmUmUmGmAmAmAmAmAmGmUmGmGmCmAmCmCmGmAmGmUmCmGmGmUmGmCmU*mU*mU*mU
With B15, the “# Sites (off-target integration sites detected)” value amounted to 12 and the “# Sites in HekCas9 cells (Example 5)” value is 12.

B16: G000480: TTR sgRNA modified sequence, Human, SEQ ID No. 87; guide sequence of CR003353 (nucleic acid)
guide: mA*mA*mA*rGrGrCrUrGrCrUrGrArUrGrArCrArCrCrUrGrUrUrUrUrArGrAmGmCmUmAmGmAmAmAmUmAmGmCrArArGrUrUrArArArArUrArArGrGrCrUrArGrUrCrCrGrUrUrArUrCrAmAmCmUmUmGmAmAmAmAmAmGmUmGmGmCmAmCmCmGmAmGmUmCmGmGmUmGmCmU*mU*mU*mU
For B16, the “# Sites (off-target integration sites detected)” value came to 11 and the “# Sites in HekCas9 cells (Example 5)” value is reported as 11.

B17: G000489: TTR sgRNA modified sequence, Human, SEQ ID No. 96; guide sequence of CR003344 (nucleic acid)
guide: mU*mU*mU*rGrArCrCrArUrCrArGrArGrGrArCrArCrUrGrUrUrUrUrArGrAmGmCmUmAmGmAmAmAmUmAmGmCrArArGrUrUrArArArArUrArArGrGrCrUrArGrUrCrCrGrUrUrArUrCrAmAmCmUmUmGmAmAmAmAmAmGmUmGmGmCmAmCmCmGmAmGmUmCmGmGmUmGmCmU*mU*mU*mU
On to B17, for which the “# Sites (off-target integration sites detected)” value is given as 19 and the “# Sites in HekCas9 cells (Example 5)” value is recorded as 19.

These data come from patent publication US11795460B2, “Compositions and methods for TTR gene editing and treating ATTR amyloidosis” (Intellia Therapeutics, Inc., priority 2017, dated 2023).
